In the RNAGym collection of RNA variant scans (doi:10.1073/pnas.2313332121):

B1: TPR t1 (parent)
chain: GACCAAUCUGCCCUCAGAGCUCGAGAACAUCUUCGGAUGCAGAGGAGGCAGGCUUCGGUGGCGCGAUAGCGCCAACGUCCUCAACCUCCAAUGCAUCCCACCACAUGAUGAUGCCUGAAGAGCCUUGGUUUUUUG

Variants of: B1
Assay: polymerase ribozyme fitness, log enrichment relative to wild type (log ratio); higher = more active; in vitro selection for triplet polymerase activity
Method in brief: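 Input and output libraries were sequenced on Illumina after a single in vitro selection round, run in triplicate on PCR-built, transcribed mutant libraries of each subunit of a heterodimeric triplet polymerase ribozyme. Selection annealed libraries to a biotinylated primer, the partner subunit and triplets, incubated them frozen at −7 °C, then gel-excised extended constructs for streptavidin-bead capture and RT-PCR. Genotypes with ≥10 input reads and ≥1 read per output were kept. Fitness is the logarithm, taken in base 2, of genotype enrichment divided by wild-type enrichment, using inverse-variance-weighted replicate averages.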

Row | Variant | polymerase ribozyme fitness (log ratio)
1 | C11G C70U | 0.101
2 | G10A C20U A27C G61U C102U | -6.05
3 | C11G C34U C86G A119U | -5.27
4 | G10U A27U C76G U109G | -5.77
5 | G10U A24G G58C C79U | -2.27
6 | C11G G39A G60C | -0.748
7 | G10C G25C C31G C89A C114U | -7.2
8 | C11G A50U A66G U87C C115U A118C | -6.65
9 | C11A C56A U81G A84U C101U C115A G120C U134G | 0.0951
10 | G10C G36C G45C U59G C62U C80U | -3.25
11 | G10A C56U U96C | -0.627
12 | G10U C28G A46U G52A G63A U87C | -5.27
13 | C11G G42A U59A A91C C94A A95G A118G | -4.19
14 | G10U A26U G39C C89U | -5.19
15 | G10A C13U U30C C31A G42U C123A U126G | -5.09
16 | C11G A50C | -0.589
17 | C11A C72G | -1.14
18 | G10U C49U G57A U106C | -2.46
19 | G10A G61U G122A | 0.738
20 | G10A G47A A68G U109C C123G | -6.84
21 | G10C U32C G52A U112A G128A | -2.52

Row | Variant | polymerase ribozyme fitness (log ratio)
22 | G10A C40A C56A A84C C85A C99A C115U | -7.46
23 | G10U A18U C40A C56G | -4.94
24 | G10A G42U C85G | -1.94
25 | G10C C89A | -2.73
26 | C11G A43G U59A | -1.75
27 | C11G C70G C123U | -0.504
28 | G10U A41U C72G C101U G110A | -4.92
29 | C11A G52A A68G C101U G117C | -7.38
30 | G10A C49U | -0.363
31 | G10U G48U G93A C123G | 0.384
32 | G10U G63A U112A | -0.981
33 | G10C C12U U14A G71U G107U | -5.41
34 | C11A G45A G61A | -1.68
35 | G10C C73A | -1.86
36 | G10U C13A C104U | -0.097
37 | C11A C53U C85A | -3.03
38 | C11G G19C C73G | -3.75
39 | C11G G19C G23A G63A A83C C114U C115U C123G | -7.99
40 | G10U C56A | 0.154
41 | G10C G42U | -2.19
42 | C11G A74U C76A U78A C80U G93U G135C | -3.08

Row | Variant | polymerase ribozyme fitness (log ratio)
43 | C11G G35A | -2.51
44 | C11G C28U | -2.03
45 | C11G A84U | -0.202
46 | C11A A37C U54C | -2.16
47 | C11A G39C G110C | -5.5
48 | C11A G17C U55C C88U U131G | -5.05
49 | C11G G19A C56U C73U | -2.04
50 | G10A C70U A121U | 1.19
51 | G10A C20A U87A C124U | -0.469
52 | C11G G44C A66G A83G C114A U133A | -5.39
53 | C11A A41U G45C | -3.39
54 | C11A C49G G63C C79A | -6.2
55 | G10C C20U G48C C114A C123U | -3.33
56 | C11A U14G G63A G71A A83G A91C C114U | -5.74
57 | C11G C34U A84C | -3.61
58 | C11G C20G C49A G117C | -5.23
59 | C11A G36U G77C | -3.38
60 | G10U G69A | -3.09
61 | G10U G71C | -1.29
62 | G10A U33G | -4.61
63 | C11G A50C C72A U92G C114A G122C U131C | -3.27

Row | Variant | polymerase ribozyme fitness (log ratio)
64 | C11G C40U G47C C56A U92A | -6.34
65 | G10C A26G G69A U125A | -5.51
66 | C11G C73A C82U | -0.161
67 | G10A C53A G71C C104U G110A C114G | -6.44
68 | G10C A26C G120C G122A C123G G128A | -5.85
69 | G10A G45A G63U C82A C85A U92C | -5.42
70 | G10U G113U | -2.76
71 | G10C C13A C40A G42U G52U C72A | -5.16
72 | G10A C12G C22G C104G | -5.13
73 | C11A G77A C82G | -1.88
74 | C11A A41C G58A U96A | -3.23
75 | C11G C22U C34A A37U C88A U96G C115U | -7.3
76 | G10A G17U C115A G135U | 0.196
77 | G10C C15A G69U U112G | -1.87
78 | C11G C20A C53G U132A | -2.13
79 | C11G A43G C85A C89G C94U | -2.52
80 | G10U C13U G60C G107A U112C G127U | -4.55
81 | G10U A37C G113U U129A | -5.04
82 | C11A G57A C73A C88G | -4.51
83 | G10A C64U U129G | -1.78
